Molecular target: the molecule itself
Test: SEC

B1: pro-PanD (uncleaved L-aspartate-alpha-decarboxylase) of Salmonella enterica (enzyme, S. enterica serovar Typhimurium LT2, UniProt P65662 1-126, looked up)
chain: MIRTMLQGKLHRVKVTQADLHYEGSCAIDQDFLDASGILENEAIDIWNVTNGKRFSTYAIAAERGSRIISVNGAAAHCAEVGDIVIIASFVTMSDEEARTWRPKVAYFEGDNEMKRTAKAIPVQVA
  stoichiometry N: 4
